In patent US20210388087A1:

B1: dBBDu183H Y97Q / dBBDu072L (antibody, name in Kabat numbering, V domains shown)
VH: QVQLVESGGGLVQPGRSLRLSCAASGFTFSNAWMHWVRQAPGKGLEWVAQIKDKGNAYAAYYAPSVKGRFTISRDDSKNSIYLQMNSLKTEDTAVYYCHYVHQASASTVLPAFGVDAWGQGTTVTVSS
VL: DIVMTQSPLSLPVTPGEPASISCQASQELVHMNRNTYLHWYQQKPGQAPRLLIYKVSNRFPGVPDRFSGSGSGTDFTLKISRVEAEDVGVYYCAQGTSVPFTFGQGTKLEIK
B2: dBBDu183H A98Q / dBBDu072L (antibody, name in Kabat numbering, V domains shown)
VH: QVQLVESGGGLVQPGRSLRLSCAASGFTFSNAWMHWVRQAPGKGLEWVAQIKDKGNAYAAYYAPSVKGRFTISRDDSKNSIYLQMNSLKTEDTAVYYCHYVHYQSASTVLPAFGVDAWGQGTTVTVSS
VL: DIVMTQSPLSLPVTPGEPASISCQASQELVHMNRNTYLHWYQQKPGQAPRLLIYKVSNRFPGVPDRFSGSGSGTDFTLKISRVEAEDVGVYYCAQGTSVPFTFGQGTKLEIK
B3: dBBDu183H S100aQ / dBBDu072L (antibody, name in Kabat numbering, V domains shown)
VH: QVQLVESGGGLVQPGRSLRLSCAASGFTFSNAWMHWVRQAPGKGLEWVAQIKDKGNAYAAYYAPSVKGRFTISRDDSKNSIYLQMNSLKTEDTAVYYCHYVHYASAQTVLPAFGVDAWGQGTTVTVSS
VL: DIVMTQSPLSLPVTPGEPASISCQASQELVHMNRNTYLHWYQQKPGQAPRLLIYKVSNRFPGVPDRFSGSGSGTDFTLKISRVEAEDVGVYYCAQGTSVPFTFGQGTKLEIK
B4: dBBDu183H A100fQ / dBBDu072L (antibody, name in Kabat numbering, V domains shown)
VH: QVQLVESGGGLVQPGRSLRLSCAASGFTFSNAWMHWVRQAPGKGLEWVAQIKDKGNAYAAYYAPSVKGRFTISRDDSKNSIYLQMNSLKTEDTAVYYCHYVHYASASTVLPQFGVDAWGQGTTVTVSS
VL: DIVMTQSPLSLPVTPGEPASISCQASQELVHMNRNTYLHWYQQKPGQAPRLLIYKVSNRFPGVPDRFSGSGSGTDFTLKISRVEAEDVGVYYCAQGTSVPFTFGQGTKLEIK
B5: dBBDu183H G100hQ / dBBDu072L (antibody, name in Kabat numbering, V domains shown)
VH: QVQLVESGGGLVQPGRSLRLSCAASGFTFSNAWMHWVRQAPGKGLEWVAQIKDKGNAYAAYYAPSVKGRFTISRDDSKNSIYLQMNSLKTEDTAVYYCHYVHYASASTVLPAFQVDAWGQGTTVTVSS
VL: DIVMTQSPLSLPVTPGEPASISCQASQELVHMNRNTYLHWYQQKPGQAPRLLIYKVSNRFPGVPDRFSGSGSGTDFTLKISRVEAEDVGVYYCAQGTSVPFTFGQGTKLEIK
B6: dBBDu183H V100iQ / dBBDu072L (antibody, name in Kabat numbering, V domains shown)
VH: QVQLVESGGGLVQPGRSLRLSCAASGFTFSNAWMHWVRQAPGKGLEWVAQIKDKGNAYAAYYAPSVKGRFTISRDDSKNSIYLQMNSLKTEDTAVYYCHYVHYASASTVLPAFGQDAWGQGTTVTVSS
VL: DIVMTQSPLSLPVTPGEPASISCQASQELVHMNRNTYLHWYQQKPGQAPRLLIYKVSNRFPGVPDRFSGSGSGTDFTLKISRVEAEDVGVYYCAQGTSVPFTFGQGTKLEIK
B7: dBBDu183H A102Q / dBBDu072L (antibody, name in Kabat numbering, V domains shown)
VH: QVQLVESGGGLVQPGRSLRLSCAASGFTFSNAWMHWVRQAPGKGLEWVAQIKDKGNAYAAYYAPSVKGRFTISRDDSKNSIYLQMNSLKTEDTAVYYCHYVHYASASTVLPAFGVDQWGQGTTVTVSS
VL: DIVMTQSPLSLPVTPGEPASISCQASQELVHMNRNTYLHWYQQKPGQAPRLLIYKVSNRFPGVPDRFSGSGSGTDFTLKISRVEAEDVGVYYCAQGTSVPFTFGQGTKLEIK
B8: dBBDu183H H93S / dBBDu072L (antibody, name in Kabat numbering, V domains shown)
VH: QVQLVESGGGLVQPGRSLRLSCAASGFTFSNAWMHWVRQAPGKGLEWVAQIKDKGNAYAAYYAPSVKGRFTISRDDSKNSIYLQMNSLKTEDTAVYYCSYVHYASASTVLPAFGVDAWGQGTTVTVSS
VL: DIVMTQSPLSLPVTPGEPASISCQASQELVHMNRNTYLHWYQQKPGQAPRLLIYKVSNRFPGVPDRFSGSGSGTDFTLKISRVEAEDVGVYYCAQGTSVPFTFGQGTKLEIK
B9: dBBDu183H V95S / dBBDu072L (antibody, name in Kabat numbering, V domains shown)
VH: QVQLVESGGGLVQPGRSLRLSCAASGFTFSNAWMHWVRQAPGKGLEWVAQIKDKGNAYAAYYAPSVKGRFTISRDDSKNSIYLQMNSLKTEDTAVYYCHYSHYASASTVLPAFGVDAWGQGTTVTVSS
VL: DIVMTQSPLSLPVTPGEPASISCQASQELVHMNRNTYLHWYQQKPGQAPRLLIYKVSNRFPGVPDRFSGSGSGTDFTLKISRVEAEDVGVYYCAQGTSVPFTFGQGTKLEIK
B10: dBBDu183H H96S / dBBDu072L (antibody, name in Kabat numbering, V domains shown)
VH: QVQLVESGGGLVQPGRSLRLSCAASGFTFSNAWMHWVRQAPGKGLEWVAQIKDKGNAYAAYYAPSVKGRFTISRDDSKNSIYLQMNSLKTEDTAVYYCHYVSYASASTVLPAFGVDAWGQGTTVTVSS
VL: DIVMTQSPLSLPVTPGEPASISCQASQELVHMNRNTYLHWYQQKPGQAPRLLIYKVSNRFPGVPDRFSGSGSGTDFTLKISRVEAEDVGVYYCAQGTSVPFTFGQGTKLEIK
B11: dBBDu183H Y97S / dBBDu072L (antibody, name in Kabat numbering, V domains shown)
VH: QVQLVESGGGLVQPGRSLRLSCAASGFTFSNAWMHWVRQAPGKGLEWVAQIKDKGNAYAAYYAPSVKGRFTISRDDSKNSIYLQMNSLKTEDTAVYYCHYVHSASASTVLPAFGVDAWGQGTTVTVSS
VL: DIVMTQSPLSLPVTPGEPASISCQASQELVHMNRNTYLHWYQQKPGQAPRLLIYKVSNRFPGVPDRFSGSGSGTDFTLKISRVEAEDVGVYYCAQGTSVPFTFGQGTKLEIK
B12: dBBDu183H A100S / dBBDu072L (antibody, name in Kabat numbering, V domains shown)
VH: QVQLVESGGGLVQPGRSLRLSCAASGFTFSNAWMHWVRQAPGKGLEWVAQIKDKGNAYAAYYAPSVKGRFTISRDDSKNSIYLQMNSLKTEDTAVYYCHYVHYASSSTVLPAFGVDAWGQGTTVTVSS
VL: DIVMTQSPLSLPVTPGEPASISCQASQELVHMNRNTYLHWYQQKPGQAPRLLIYKVSNRFPGVPDRFSGSGSGTDFTLKISRVEAEDVGVYYCAQGTSVPFTFGQGTKLEIK
B13: dBBDu183H G100hS / dBBDu072L (antibody, name in Kabat numbering, V domains shown)
VH: QVQLVESGGGLVQPGRSLRLSCAASGFTFSNAWMHWVRQAPGKGLEWVAQIKDKGNAYAAYYAPSVKGRFTISRDDSKNSIYLQMNSLKTEDTAVYYCHYVHYASASTVLPAFSVDAWGQGTTVTVSS
VL: DIVMTQSPLSLPVTPGEPASISCQASQELVHMNRNTYLHWYQQKPGQAPRLLIYKVSNRFPGVPDRFSGSGSGTDFTLKISRVEAEDVGVYYCAQGTSVPFTFGQGTKLEIK
B14: dBBDu183H V100iS / dBBDu072L (antibody, name in Kabat numbering, V domains shown)
VH: QVQLVESGGGLVQPGRSLRLSCAASGFTFSNAWMHWVRQAPGKGLEWVAQIKDKGNAYAAYYAPSVKGRFTISRDDSKNSIYLQMNSLKTEDTAVYYCHYVHYASASTVLPAFGSDAWGQGTTVTVSS
VL: DIVMTQSPLSLPVTPGEPASISCQASQELVHMNRNTYLHWYQQKPGQAPRLLIYKVSNRFPGVPDRFSGSGSGTDFTLKISRVEAEDVGVYYCAQGTSVPFTFGQGTKLEIK
B15: dBBDu183H H93T / dBBDu072L (antibody, name in Kabat numbering, V domains shown)
VH: QVQLVESGGGLVQPGRSLRLSCAASGFTFSNAWMHWVRQAPGKGLEWVAQIKDKGNAYAAYYAPSVKGRFTISRDDSKNSIYLQMNSLKTEDTAVYYCTYVHYASASTVLPAFGVDAWGQGTTVTVSS
VL: DIVMTQSPLSLPVTPGEPASISCQASQELVHMNRNTYLHWYQQKPGQAPRLLIYKVSNRFPGVPDRFSGSGSGTDFTLKISRVEAEDVGVYYCAQGTSVPFTFGQGTKLEIK
B16: dBBDu183H V95T / dBBDu072L (antibody, name in Kabat numbering, V domains shown)
VH: QVQLVESGGGLVQPGRSLRLSCAASGFTFSNAWMHWVRQAPGKGLEWVAQIKDKGNAYAAYYAPSVKGRFTISRDDSKNSIYLQMNSLKTEDTAVYYCHYTHYASASTVLPAFGVDAWGQGTTVTVSS
VL: DIVMTQSPLSLPVTPGEPASISCQASQELVHMNRNTYLHWYQQKPGQAPRLLIYKVSNRFPGVPDRFSGSGSGTDFTLKISRVEAEDVGVYYCAQGTSVPFTFGQGTKLEIK
B17: dBBDu183H Y97T / dBBDu072L (antibody, name in Kabat numbering, V domains shown)
VH: QVQLVESGGGLVQPGRSLRLSCAASGFTFSNAWMHWVRQAPGKGLEWVAQIKDKGNAYAAYYAPSVKGRFTISRDDSKNSIYLQMNSLKTEDTAVYYCHYVHTASASTVLPAFGVDAWGQGTTVTVSS
VL: DIVMTQSPLSLPVTPGEPASISCQASQELVHMNRNTYLHWYQQKPGQAPRLLIYKVSNRFPGVPDRFSGSGSGTDFTLKISRVEAEDVGVYYCAQGTSVPFTFGQGTKLEIK
B18: dBBDu183H A98T / dBBDu072L (antibody, name in Kabat numbering, V domains shown)
VH: QVQLVESGGGLVQPGRSLRLSCAASGFTFSNAWMHWVRQAPGKGLEWVAQIKDKGNAYAAYYAPSVKGRFTISRDDSKNSIYLQMNSLKTEDTAVYYCHYVHYTSASTVLPAFGVDAWGQGTTVTVSS
VL: DIVMTQSPLSLPVTPGEPASISCQASQELVHMNRNTYLHWYQQKPGQAPRLLIYKVSNRFPGVPDRFSGSGSGTDFTLKISRVEAEDVGVYYCAQGTSVPFTFGQGTKLEIK
B19: dBBDu183H A100T / dBBDu072L (antibody, name in Kabat numbering, V domains shown)
VH: QVQLVESGGGLVQPGRSLRLSCAASGFTFSNAWMHWVRQAPGKGLEWVAQIKDKGNAYAAYYAPSVKGRFTISRDDSKNSIYLQMNSLKTEDTAVYYCHYVHYASTSTVLPAFGVDAWGQGTTVTVSS
VL: DIVMTQSPLSLPVTPGEPASISCQASQELVHMNRNTYLHWYQQKPGQAPRLLIYKVSNRFPGVPDRFSGSGSGTDFTLKISRVEAEDVGVYYCAQGTSVPFTFGQGTKLEIK
B20: dBBDu183H S100aT / dBBDu072L (antibody, name in Kabat numbering, V domains shown)
VH: QVQLVESGGGLVQPGRSLRLSCAASGFTFSNAWMHWVRQAPGKGLEWVAQIKDKGNAYAAYYAPSVKGRFTISRDDSKNSIYLQMNSLKTEDTAVYYCHYVHYASATTVLPAFGVDAWGQGTTVTVSS
VL: DIVMTQSPLSLPVTPGEPASISCQASQELVHMNRNTYLHWYQQKPGQAPRLLIYKVSNRFPGVPDRFSGSGSGTDFTLKISRVEAEDVGVYYCAQGTSVPFTFGQGTKLEIK
B21: dBBDu183H L100dT / dBBDu072L (antibody, name in Kabat numbering, V domains shown)
VH: QVQLVESGGGLVQPGRSLRLSCAASGFTFSNAWMHWVRQAPGKGLEWVAQIKDKGNAYAAYYAPSVKGRFTISRDDSKNSIYLQMNSLKTEDTAVYYCHYVHYASASTVTPAFGVDAWGQGTTVTVSS
VL: DIVMTQSPLSLPVTPGEPASISCQASQELVHMNRNTYLHWYQQKPGQAPRLLIYKVSNRFPGVPDRFSGSGSGTDFTLKISRVEAEDVGVYYCAQGTSVPFTFGQGTKLEIK

molecular target: Human CD137 ECD (human); experiment: SPR, vs parent H183/L072
Sequence (chain, as listed by the source limits assumed): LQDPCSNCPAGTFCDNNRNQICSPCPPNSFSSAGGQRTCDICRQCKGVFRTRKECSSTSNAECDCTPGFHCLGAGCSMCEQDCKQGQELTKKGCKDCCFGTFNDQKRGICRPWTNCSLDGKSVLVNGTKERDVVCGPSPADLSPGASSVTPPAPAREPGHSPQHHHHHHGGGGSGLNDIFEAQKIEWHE

Fold change of affinity, 0 fold:
B1
B2
B3
B4
B5
B6
B7
B8
B9
B10
B11
B12
B13
B14
B15
B16
B17
B18
B19
B20
B21
